Reference: PMC8701324, “Structural Insight into the Mechanism of PALB2 Interaction with MRG15” (Genes, 2021)

Molecular target: MRG15 MRG domain, amino acids 155-323, Q9UBU8-2
Assay: competition assay (fluorescence anisotropy, displacement of FAM-PALB2 from MRG)
Details: chain shown with the change; 10 nM WT FAM-PALB2 peptide; parent: 9.8 ±2.6

Chain of MRG15 MRG domain, amino acids 155-323, Q9UBU8-2 (Q9UBU8 194-362): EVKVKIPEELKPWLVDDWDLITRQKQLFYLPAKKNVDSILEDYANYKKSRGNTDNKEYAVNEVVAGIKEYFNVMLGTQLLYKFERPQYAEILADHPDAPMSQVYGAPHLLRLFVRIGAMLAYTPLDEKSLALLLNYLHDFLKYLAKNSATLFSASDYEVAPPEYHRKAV

Row | Ki | Binder
1 | 1.7 nM | MLSLKQLLSFLSITDFQLPDEDFGTLKLEKVKSC [WT PALB2^597-630 peptide P621T]
2 | 23.2 nM | MLSLKQLLSFLSITDFQLPHEDFGPLKLEKVKSC [WT PALB2^597-630 peptide D616H]
3 | 52.8 nM | MLSLKQLLSFLSITDFQLSDEDFGPLKLEKVKSC [WT PALB2^597-630 peptide P615S]
